In the supplement of paper PMC7125110:
± gives the standard error. For some of these results: Variants at the floor of the assay were thinned out.

B1: glmS ribozyme (parent)
chain: AUAAAAGCGCCAGAACUACAGAAAUGUAGUUGACGAGGAGGAGGUUUAUCGAAUUUUCGGCGGAUGCCUCCAAA

Assays:
Details in all cases: with glucosamine-6-phosphate
[1] = variants of: B1; test: kcat; higher = faster cleavage; RNA array
How it was run: (§1)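 In situ transcription by E. coli RNA polymerase produced barcoded ribozyme variants on sequenced MiSeq chips, and a hybridised Cy3 probe tracked them at 37 °C. Glucosamine-6-phosphate was flowed in at 40 μM to 10 mM in HEPES/KCl/Mg(OAc)2 buffer. kcat and KM were taken from weighted Michaelis–Menten fits of kobs values from exponential decay fits.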

[2] = variants of: B1; test: self-cleavage kobs at 640 uM GlcN6P; higher = faster cleavage; RNA array
How it was run: as §1

[3] = variants of: B1; test: self-cleavage kobs at 2500 uM GlcN6P; higher = faster cleavage; RNA array
How it was run: as §1

[4] = variants of: B1; test: self-cleavage kobs at 10000 uM GlcN6P; higher = faster cleavage; RNA array
How it was run: as §1

[5] = variants of: B1; test: KM; higher = weaker cofactor use; RNA array
How it was run: as §1

[6] = variants of: B1; test: self-cleavage kobs at 160 uM GlcN6P; higher = faster cleavage; RNA array
How it was run: as §1

[7] = variants of: B1; test: self-cleavage kobs at 40 uM GlcN6P; higher = faster cleavage; RNA array
How it was run: as §1

Variant	kcat [1] [s⁻¹]	self-cleavage kobs at 640 uM GlcN6P [2] [s⁻¹]	self-cleavage kobs at 2500 uM GlcN6P [3] [s⁻¹]	self-cleavage kobs at 10000 uM GlcN6P [4] [s⁻¹]	KM [5] [µM]	self-cleavage kobs at 160 uM GlcN6P [6] [s⁻¹]	self-cleavage kobs at 40 uM GlcN6P [7] [s⁻¹]
U55C U56C	9.63e-05 ± 1.9e-05	4.92e-05 ± 2e-05	5.28e-05 ± 1e-05	8.84e-05 ± 1.5e-05	–	–	–
A48C U54A	0.000452 ± 4.8e-05	0.000118 ± 2.2e-05	0.000342 ± 8.9e-05	0.000371 ± 6.6e-05	1720 ± 350	3.98e-05 ± 2e-05	–
C16U A52C	1.88e-05 ± 3.1e-06	–	–	–	–	–	–
U30A A33C	6.48e-05 ± 3e-06	–	–	4.35e-05 ± 1.2e-05	4930 ± 560	–	–
A14C G40C	0.000718 ± 6.3e-05	0.000114 ± 1.8e-05	0.000285 ± 3.3e-05	0.000533 ± 7.6e-05	3650 ± 530	2.58e-05 ± 1.1e-05	–
A33U C50U G59U	1.02e-05 ± 3e-06	–	–	–	–	–	–
G43A A53G	8.84e-05 ± 2.5e-05	–	0.000132 ± 2.8e-05	7.56e-05 ± 8.5e-06	–	–	–
G41A A42G	0.000223 ± 4.2e-05	8.45e-05 ± 1.3e-05	0.000296 ± 4.3e-05	0.000192 ± 1.8e-05	–	–	–
G51A U69A	1.6e-05 ± 2.9e-06	–	–	–	–	–	–
G13U C58G	0.000545 ± 0.00027	9.89e-05 ± 1.6e-05	0.000127 ± 2e-05	0.000381 ± 3.9e-05	–	–	–
G38U C67G	1.53e-05 ± 7.3e-06	–	–	–	–	–	–
G40U U49G	8.53e-05 ± 3.1e-05	–	9.77e-05 ± 2e-05	6.94e-05 ± 1.1e-05	–	–	–
A12U A39C A52G	0.000172 ± 2.4e-05	4.67e-05 ± 1.3e-05	8.04e-05 ± 1.8e-05	0.00015 ± 2.7e-05	2140 ± 680	–	–
C70G C71A	5.66e-05 ± 1.4e-05	7.38e-05 ± 1.2e-05	6.86e-05 ± 1.8e-05	3.7e-05 ± 9.8e-06	–	8.13e-05 ± 1.8e-05	–
C16A G38U	< 1e-05	–	< 1e-05	–	–	–	–
U49A C70U	2.22e-05 ± 1.1e-05	–	3.89e-05 ± 1.9e-05	–	–	–	–
U31A C68U	0.00143 ± 0.00043	0.000477 ± 9.5e-05	0.000776 ± 0.00018	0.00105 ± 0.00019	2740 ± 1200	6.73e-05 ± 1.4e-05	–
A14U A64U	1.88e-05 ± 5.9e-07	–	–	–	8870 ± 560	–	–
U54G C68G	0.0001 ± 1e-05	0.000111 ± 1.1e-05	8.41e-05 ± 9.1e-06	9.69e-05 ± 8.7e-06	89.1 ± 43	6.82e-05 ± 8.7e-06	2.37e-05 ± 7.3e-06
A33U G59U	< 1e-05	< 1e-05	< 1e-05	–	–	–	< 1e-05
